Data from PMC8808176 (The Journal of Biological Chemistry, 2021).

Target: the molecule itself
Assay: cryo-EM structure

B1: full-length mouse TRPML2 (mmTRPML2) with N-terminal maltose-binding protein (natural protein, UniProt Q8K595-1 1-566, looked up)
chain: MPGDEETLDLPAWNRVPDLTWGPHHRSAMASLDSEVREECLREDLKFYFMSPCEKYRARRQIPWKLGLQILKIVMVTTQLVRFGLSNQLVVAFKEDNTVAFKHLFLKGFSGVDEDDYSCSIYTQENTYESIFFAIKQYRHLKNISLATLGYGESEDNRTGLKVCKQHYKTGAMFSSNETLNIDSDIETDCIHLDLQVLTTEPEDWAQTSFFRLDFYRLVQVDISFALKGIDLQAVHSREIPDCYLFQNTITFDNTAHSGKIKIYLNSEANIEECKNMNISGSTQRSTHYLLVFDVFVIMICLASLILCTRSIVLALRLRKRFLNFFLEKYKQRVCGADQWEFVNGWYVLVTISDLMTIIGSILKMEIKAKKLTNYDVCSILLGTSTLFVWVGVIRYLGYFQTYNVLILTMQASLPKVLRFCACAGMIYLGYTFCGWIVLGPYHEKFENLNIVAECLFSLVNGDDMFATFAQIQQKSILVWLFSRLYLYSFISLFIYMVLSLFIALITDSYHTIKKYQQHGFPETDLQKFLKESGSKDGYQKQPSALLSCLCCLRRRRSNDHLILID
  stoichiometry N: 4
